Reference: US20160159910A1 (Genentech, published 2016)

Key:
[1] = target: T1, B7-H4 (IgV; G28-F150 including spacer S151-V157)-irrelevant (Ig-C) chimeric membrane protein (construct-88) (human, UniProt Q7Z7D3 28-157); test: FACS on 293 cells expressing the Ig-chimera with the B7-H4 Ig-V domain
T1 construct: also called B7-H4 (Ig-V):MolX (Ig-C, TM, CD); Ig-chimera expressing the B7-H4 Ig-V domain; not shown: Ig-C, transmembrane and cytoplasmic parts of the unnamed irrelevant protein (MolX) that display the domain on the cell; N-terminal Herpes-gD tag
T1 sequence: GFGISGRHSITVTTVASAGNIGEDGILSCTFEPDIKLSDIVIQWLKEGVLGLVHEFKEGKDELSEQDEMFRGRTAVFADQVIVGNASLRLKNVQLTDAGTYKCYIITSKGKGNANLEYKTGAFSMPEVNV
Excerpt: Briefly, 293 cells were transiently transfected with constructs 88 & 88B using polyfect.

rat B7-H4 = target: T2, rat B7-H4 (rat, UniProt Q501W4 29-282); test: Scatchard analysis, radioligand cell binding on 293 cells expressing recombinant B7-H4
T2 construct: On stably transfected 293 cells; also called recombinant rat B7-H4
T2 sequence: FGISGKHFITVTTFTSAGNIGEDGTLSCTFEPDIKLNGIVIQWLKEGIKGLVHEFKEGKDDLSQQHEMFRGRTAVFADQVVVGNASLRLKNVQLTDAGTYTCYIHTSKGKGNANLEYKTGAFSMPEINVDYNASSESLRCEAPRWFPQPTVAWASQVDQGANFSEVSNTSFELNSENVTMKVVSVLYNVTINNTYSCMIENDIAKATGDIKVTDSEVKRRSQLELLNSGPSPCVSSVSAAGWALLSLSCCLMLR
Description: (§1) Competition assay mixtures of 50 μL volume containing a fixed concentration of [I¹²⁵] labeled antibody and decreasing concentrations of serially diluted, unlabeled antibody were placed into 96-well plates. […] Cells were detached from the flask using Sigma Cell Dissociation Solution and were washed with binding buffer, which consisted of Dulbecco's Modified Eagle Medium (DMEM) with 1% bovine serum albumin (BSA), […] and 0.1% sodium azide. The washed cells were added to the 96 well plates at a density of 100,000 cells in 0.2 mL of binding buffer. The final concentration of the [I¹²⁵] labeled antibody in each well was ˜250 pM. The final concentration of the unlabeled antibody in the competition assay ranged from 1000 nM through ten 2-fold dilution steps to a 0 nM buffer-only assay. Competition assays were carried out in triplicate. Competition assays were incubated for 2 hours at room temperature. After the 2-hour incubation, the competition assays were transferred to a Millipore Multiscreen filter plate (Billerica, Mass.) and washed 4 times with binding buffer to separate the free from bound [I¹²⁵] labeled antibody. The filters were counted on a Wallac Wizard 1470 gamma counter (PerkinElmer Life and Analytical Sciences Inc.; Wellesley, Mass.). The binding data was evaluated using NewLigand software (Genentech), which uses the fitting algorithm of Munson and Robard to determine the binding affinity of the antibody (Munson and Robard 1980).

cynomolgus monkey B7-H4 = target: T3, cynomolgus monkey B7-H4 (cynomolgus monkey, UniProt Q7Z7D3 29-282 (human entry)); test: as above
T3 construct: On stably transfected 293 cells; also called cyno B7-H4; recombinant cynomolgus monkey B7-H4
T3 chain: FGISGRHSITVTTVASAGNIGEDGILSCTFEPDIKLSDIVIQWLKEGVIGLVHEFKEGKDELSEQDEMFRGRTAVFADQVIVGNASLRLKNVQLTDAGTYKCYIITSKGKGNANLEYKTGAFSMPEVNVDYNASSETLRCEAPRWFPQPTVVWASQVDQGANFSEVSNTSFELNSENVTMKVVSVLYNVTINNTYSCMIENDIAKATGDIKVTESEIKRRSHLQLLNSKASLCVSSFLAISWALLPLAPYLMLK
Description: as §1

human B7-H4 [2] = target: T4, human B7-H4 (human, UniProt Q7Z7D3 29-282); test: as above
T4 construct: On stably transfected 293 cells (recombinant) or on MX-1 / SKBR3 tumor cells (endogenous); the cell is named under assay; also called huB7-H4; hB7-H4
T4 sequence: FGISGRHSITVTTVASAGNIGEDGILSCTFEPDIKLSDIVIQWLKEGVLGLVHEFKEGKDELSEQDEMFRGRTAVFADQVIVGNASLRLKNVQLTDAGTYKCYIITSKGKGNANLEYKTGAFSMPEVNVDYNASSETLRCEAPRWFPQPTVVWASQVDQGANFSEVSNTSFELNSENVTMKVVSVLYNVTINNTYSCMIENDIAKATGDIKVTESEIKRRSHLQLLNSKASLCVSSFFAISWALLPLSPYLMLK
Description: as §1

mouse B7-H4 = target: T5, mouse B7-H4 (mouse, UniProt Q7TSP5 29-283); test: as above
T5 construct: On stably transfected 293 cells; also called muB7-H4; recombinant mouse B7-H4
T5 sequence: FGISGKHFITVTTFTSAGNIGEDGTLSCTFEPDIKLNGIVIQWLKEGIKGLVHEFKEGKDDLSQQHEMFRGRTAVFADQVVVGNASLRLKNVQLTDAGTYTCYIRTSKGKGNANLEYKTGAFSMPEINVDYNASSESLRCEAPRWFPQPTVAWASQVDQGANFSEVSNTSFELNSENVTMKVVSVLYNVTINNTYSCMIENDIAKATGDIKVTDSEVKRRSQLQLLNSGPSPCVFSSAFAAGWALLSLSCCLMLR
Description: as §1

human B7-H4 [3] = target: T4, human B7-H4; test: Scatchard analysis, radioligand cell binding on MX-1 cells (endogenous human B7-H4)
Description: as §1, with “After the 2-hour incubation, the competition assays were transferred to a Millipore Multiscreen filter plate (Billerica, Mass.) and washed 4 times with binding buffer to separate the free from bound [I¹²⁵] labeled antibody.” left out

B1: hu1D11.v1.9 varD (antibody)
heavy: not shown
light: DIQMTQSPSSLSASVGDRVTITCKASQGFNKYVAWYQQKPGKAPKLLIYYTSTLQPGVPSRFSGSGSGRDYTLTISSLQPEDFATYYCLQYGDLLYAFGQGTKVEIKRTVAAPSVFIFPPSDEQLKSGTASVVCLLNNFYPREAKVQWKVDNALQSGNSQESVTEQDSKDSTYSLSSTLTLSKADYEKHKVYACEVTHQGLSSPVTKSFNRGEC
notes: IgG1 / kappa; also called h1D11v1.9_VarD; h1D11v1.9varD
fold binding compared to mock transfected 293 cells [1]: ~44 fold | Kd (rat B7-H4): 2.7 nM | Kd (cynomolgus monkey B7-H4): 3.7 nM | Kd (human B7-H4 [2]): 2.9 nM | Kd (mouse B7-H4): 5 nM | Kd (human B7-H4 [3]): 7.4 nM
